According to patent US11814663B2, “Microorganisms with improved 1,3-propanediol and butyric acid production” (METABOLIC EXPLORER, priority 2018, dated 2023):
Numbering of substitutions follows the chain as printed. In names and notes the source's numbering stands.

B1: Clostridium acetobutylicum glycerol kinase GlpK variant GlpK*(H22Y/A347T/V466M), SEQ ID NO: 13 (Clostridium acetobutylicum ATCC 824; A347T/H22Y/V466M) (protein)
chain: MKKYIIALDQGTTSSRAIIFDYEQNILEISQKEFTQIYPSKGWVEHNPLEIWSSQYGVLQEVMAKANITQENIAAIGITNQRETTIVWDKNTGEPVYNAIVWQCRRTADIVEGLKRDKEFSDYVKENTGLILDAYFSATKIKWILDNVEGAREKAEKGELLFGTVDTWLVWKLTNGKVHVTDYTNASRTMLYNIKELKWDERILRKLNIPRSMLPEVKNSSEVYGYTNLGGKGGIRVPIAGMAGDQQCALFGQTCFEEGSVKNTYGTGCFLLMNTGENIIQSKNGLVTTIAIGLEGKVQYALEGSVFVGGAVIQWIRDELKLVSDAADTEYFAKKVNDNGGVYVVPTFTGLGAPYWDMYARGAIFGLTRGANKNHIIRAALEAIAYQSRDLIDAMKEDSGCEITRIKVDGGASRNNLLMQFQADITGTEVVRPIITETTALGAAYLAGLAVGFWKSKEEIAEKWSMSEVYTPNLDEDEKIRLYNGWKRAVERVQGWEE
notes: GlpK*(H22Y/); made in house; host or cells: E. coli BL21(DE3) star

Assays:
Format in all cases: biochemical, Clostridium acetobutylicum ATCC824
[1] = target: T1, Clostridium acetobutylicum glycerol kinase GlpK wt (glpK, CA_C1321, Uniprot Q97JG4), SEQ ID NO: 1 (Clostridium acetobutylicum, UniProt Q97JG4); assay: Glycerol kinase activity towards glycerol (ADP appearance coupled to NADH oxidation), wild type; conditions: pH 9, 30° C., 2 mM ATP, 0.01-50 mM glycerol
T1 construct: GlpK wt; Q97JG4; made in house; host or cells: E. coli BL21(DE3) star
T1 sequence (Q97JG4 1-498): B1 chain with Y22H, T347A, M466V
Excerpt: (§1) Three different point mutations were identified in glpK gene in the clone PD0557Vc05 leading to the mutant protein GlpK* with H22Y, A347T and V466M (table 2 above). In order to better characterize the effect of the mutations, we tested them individually or in combination. Therefore, the alleles coding for the mutated glycerol kinase were cloned into the expression plasmid pPAL7 (Biorad®) and the plasmids obtained were transformed into E. coli strain BL21(DE3) star to purify each mutated protein and perform biochemical experiments. […]
(§2) The proteins were purified from the crude cell-extract by affinity on a Profinity column (BIORAD, Bio-Scale Mini Profinity exact cartridge 5 ml) according to the protocol recommended by the manufacturer. […] Protein concentration was measured using the Bradford protein assay.
(§3) Determination of kinetic parameters of GlpK wild type and mutants Glycerol kinase activity (GLPK) that catalyses the following reaction: Glycerol+ATP=>Glycerol-3-Phosphate+ADP, was determined by measuring the ADP appearance by enzymatic coupling to NADH oxidation. […] The oxidation of NADH was monitored at 30° C. by absorbance at 340 nm on a spectrophotometer (λ340=6290 M^−1 cm^−1).
(§4) One unit of enzyme activity was defined as the amount of enzyme catalyzing the decrease of 1 μmol of NADH per min. Kinetic parameters were determined with Sigmaplot by fitting to the Michaelis-Menten equation.

[2] = target: T2, Clostridium acetobutylicum glycerol kinase GlpK variant GlpK*(H22Y/A347T/V466M), SEQ ID NO: 13 (Clostridium acetobutylicum, UniProt Q97JG4, A347T/H22Y/V466M); assay: Glycerol kinase activity towards glycerol (ADP appearance coupled to NADH oxidation), H22Y/A347T/V466M; conditions: pH 9, 30° C., 2 mM ATP, 0.01-50 mM glycerol
T2 construct: made in house; host or cells: E. coli BL21(DE3) star
T2 sequence (Q97JG4 1-498 H22Y/A347T/V466M): B1 chain
Excerpt: as §1, §2, §3, §4

[3] = substrate: OCC(O)CO; assay: as above; conditions: other: GlpK* (H22Y/A347T/V466M), pH 9, 30° C., 2 mM ATP, 0.01-50 mM glycerol
Excerpt: Three different point mutations were identified in glpK gene in the clone PD0557Vc05 leading to the mutant protein GlpK* with H22Y, A347T and V466M (table 2 above). In order to better characterize the effect of the mutations, we tested them individually or in combination. Therefore, the alleles coding for the mutated glycerol kinase were cloned into the expression plasmid pPAL7 (Biorad®) and the plasmids obtained were transformed into E. coli strain BL21(DE3) star to purify each mutated protein and perform biochemical experiments.
Cultures of the seven strains 1 to 7 for the overproduction of the proteins were realized in a 2 L Erlenmeyer flask, using LB broth (Bertani, 1951) that was supplemented with 5 g/L glucose and 100 mg/L of ampicillin. An overnight culture was used to inoculate a 500 mL culture to an OD600 nm of about 0.15. The culture was first kept on a shaker at 37° C. and 200 rpm until OD600 nm was about 0.5 and then the culture was moved on a second shaker at 25° C. and 200 rpm until OD600 nm was 0.6-0.8 (about one hour), before induction with 500 μM IPTG. The culture was kept at 25° C. and 200 rpm until OD600 nm was around 4, and then it was stopped. Cells were centrifuged at 7000 rpm, 5 minutes at 4° C., and then stored at −20° C. This protocol was the same for strains 1 to 7.
For each strain, about 250 mg of E. coli biomass was suspended in 40 ml of 100 mM potassium phosphate pH 7.6, and a protease inhibitor cocktail. The cells suspension (15 ml per conical tube) was sonicated on ice (Bandelin sonoplus, 70 w) in a 50 ml conical tube during 8 cycles of 30 sec with 30 sec intervals. After sonication, cells were incubated for 30 min at room temperature with 5 mM MgCl2 and 1 UI/ml of DNaseI. Cells debris were removed by centrifugation at 12000 g for 30 min at 4° C.
as §2, with “manufacturer. The crude extract was loaded on a 5 ml Profinity exact cartridge equilibrated with 100 mM potassium phosphate pH 7.6.” for “manufacturer.”
as §3, §4

Molecule | Kcat/km [1] | Kcat/km [2] | Km [3] | Vmax [3] | kcat [3] | kcat/Km [3]
OCC(O)CO [glycerol] | 1.52e+06 M⁻¹ s⁻¹ | 33900 M⁻¹ s⁻¹ | – | – | – | –
B1 | – | – | 39 ± 2 µM | 1404 ± 13 nmol/min/mg | 1.32 ± 0.012 s⁻¹ | 33900 ± 2300 M⁻¹ s⁻¹
